The values that follow come from PMC10907169.

The target of the test is T1, Full-length human KIF5A heavy chain (WT), C-terminal FLAG tag (human), Q12840.
T1 chain: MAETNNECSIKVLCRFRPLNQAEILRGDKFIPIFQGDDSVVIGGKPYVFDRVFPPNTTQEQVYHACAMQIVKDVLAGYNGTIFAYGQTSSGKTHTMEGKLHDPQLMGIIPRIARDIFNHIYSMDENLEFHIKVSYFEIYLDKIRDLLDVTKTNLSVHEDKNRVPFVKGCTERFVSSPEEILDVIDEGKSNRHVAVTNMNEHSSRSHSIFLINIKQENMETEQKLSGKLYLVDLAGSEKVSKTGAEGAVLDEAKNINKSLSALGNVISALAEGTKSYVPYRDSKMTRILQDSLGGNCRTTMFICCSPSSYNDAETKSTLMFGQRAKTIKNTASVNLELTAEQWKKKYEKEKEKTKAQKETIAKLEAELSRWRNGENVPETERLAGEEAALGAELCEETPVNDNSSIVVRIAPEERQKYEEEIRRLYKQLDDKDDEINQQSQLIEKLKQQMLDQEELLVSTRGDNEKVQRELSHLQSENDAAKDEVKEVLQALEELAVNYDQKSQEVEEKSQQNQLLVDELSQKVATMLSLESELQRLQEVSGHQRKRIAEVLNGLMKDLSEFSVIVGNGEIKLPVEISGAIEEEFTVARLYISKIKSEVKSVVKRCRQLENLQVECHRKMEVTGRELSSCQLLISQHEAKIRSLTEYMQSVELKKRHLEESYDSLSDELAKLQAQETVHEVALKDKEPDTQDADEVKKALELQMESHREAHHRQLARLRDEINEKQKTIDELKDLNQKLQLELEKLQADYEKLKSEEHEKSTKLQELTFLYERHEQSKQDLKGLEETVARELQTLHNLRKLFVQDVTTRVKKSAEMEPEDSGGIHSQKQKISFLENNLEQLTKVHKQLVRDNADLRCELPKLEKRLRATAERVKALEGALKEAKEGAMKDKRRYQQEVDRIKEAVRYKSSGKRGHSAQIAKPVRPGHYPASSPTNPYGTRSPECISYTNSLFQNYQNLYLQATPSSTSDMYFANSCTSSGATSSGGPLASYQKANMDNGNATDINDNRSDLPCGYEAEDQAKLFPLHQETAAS
Briefly: mass photometry; single-molecule landing assay, Refeyn OneMP, 25 nM KIF5A, room temperature (~23 °C); results say low salt buffer (150 mM KCl), methods name PBS; monomer to dimer, and dimers to tetramer. Particulars: remark: other sources report otherwise.

Where “and” joins values, the source holds several entries; their conditions need not be identical. Equal values may be shown once.

B1: Full-length human KIF5A heavy chain (WT), C-terminal FLAG tag, Q12840 1-1032 (natural protein)
chain: T1 chain
A word on the stoichiometry N: it is a count of units in the complex or per binding partner. B1: the stoichiometry N is 2 and 4.
